In paper PMC9325753, “Chilling-induced phosphorylation of IPA1 by OsSAPK6 activates chilling tolerance responses in rice”:

Target: T1, GST-IPA1 (Oryza sativa, UniProt Q7EXZ2 1-417)
T1 sequence: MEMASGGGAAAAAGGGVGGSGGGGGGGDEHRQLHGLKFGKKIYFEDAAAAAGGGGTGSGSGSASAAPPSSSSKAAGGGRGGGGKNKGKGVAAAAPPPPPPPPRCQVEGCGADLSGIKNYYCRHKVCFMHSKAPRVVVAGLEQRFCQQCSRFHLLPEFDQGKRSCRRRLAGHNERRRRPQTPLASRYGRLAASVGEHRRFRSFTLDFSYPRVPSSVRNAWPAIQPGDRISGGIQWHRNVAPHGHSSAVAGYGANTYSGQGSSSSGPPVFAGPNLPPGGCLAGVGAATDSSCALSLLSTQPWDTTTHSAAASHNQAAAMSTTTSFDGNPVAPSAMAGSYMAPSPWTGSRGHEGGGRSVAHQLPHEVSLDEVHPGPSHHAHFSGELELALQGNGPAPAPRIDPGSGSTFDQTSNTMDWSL
Assay: EMSA; LightShift Chemiluminescent EMSA Kit (Thermo 20148) per manufacturer; buffer, salt, pH and temperature not stated
Conditions: protein: recombinant; tags: N-terminal GST (pGEX-4t-1); label: 5'-biotin on strand 1; blunt

B1: Biotin-P2 (OsCBF3 promoter) (dsDNA)
DNA 1: TACCTAGGTTTTAAGTTATAGTACTTACAATTTTTTGATGAG
DNA 2: CTCATCAAAAAATTGTAAGTACTATAACTTAAAACCTAGGTA
B1: binds.

B2: Biotin-P2-m (GTAC to ATAC) (dsDNA)
DNA 1: TACCTAGGTTTTAAGTTATAATACTTACAATTTTTTGATGAG
DNA 2: CTCATCAAAAAATTGTAAGTATTATAACTTAAAACCTAGGTA
B2: no binding.
